The target of experiment [1] is human NaV1.5 voltage-gated sodium channel (human) (UniProt Q14524).
The target is the same in experiment [2]. The source holds these as a separate data set.

UniProt Q14524, sequence (Q14524 whole entry): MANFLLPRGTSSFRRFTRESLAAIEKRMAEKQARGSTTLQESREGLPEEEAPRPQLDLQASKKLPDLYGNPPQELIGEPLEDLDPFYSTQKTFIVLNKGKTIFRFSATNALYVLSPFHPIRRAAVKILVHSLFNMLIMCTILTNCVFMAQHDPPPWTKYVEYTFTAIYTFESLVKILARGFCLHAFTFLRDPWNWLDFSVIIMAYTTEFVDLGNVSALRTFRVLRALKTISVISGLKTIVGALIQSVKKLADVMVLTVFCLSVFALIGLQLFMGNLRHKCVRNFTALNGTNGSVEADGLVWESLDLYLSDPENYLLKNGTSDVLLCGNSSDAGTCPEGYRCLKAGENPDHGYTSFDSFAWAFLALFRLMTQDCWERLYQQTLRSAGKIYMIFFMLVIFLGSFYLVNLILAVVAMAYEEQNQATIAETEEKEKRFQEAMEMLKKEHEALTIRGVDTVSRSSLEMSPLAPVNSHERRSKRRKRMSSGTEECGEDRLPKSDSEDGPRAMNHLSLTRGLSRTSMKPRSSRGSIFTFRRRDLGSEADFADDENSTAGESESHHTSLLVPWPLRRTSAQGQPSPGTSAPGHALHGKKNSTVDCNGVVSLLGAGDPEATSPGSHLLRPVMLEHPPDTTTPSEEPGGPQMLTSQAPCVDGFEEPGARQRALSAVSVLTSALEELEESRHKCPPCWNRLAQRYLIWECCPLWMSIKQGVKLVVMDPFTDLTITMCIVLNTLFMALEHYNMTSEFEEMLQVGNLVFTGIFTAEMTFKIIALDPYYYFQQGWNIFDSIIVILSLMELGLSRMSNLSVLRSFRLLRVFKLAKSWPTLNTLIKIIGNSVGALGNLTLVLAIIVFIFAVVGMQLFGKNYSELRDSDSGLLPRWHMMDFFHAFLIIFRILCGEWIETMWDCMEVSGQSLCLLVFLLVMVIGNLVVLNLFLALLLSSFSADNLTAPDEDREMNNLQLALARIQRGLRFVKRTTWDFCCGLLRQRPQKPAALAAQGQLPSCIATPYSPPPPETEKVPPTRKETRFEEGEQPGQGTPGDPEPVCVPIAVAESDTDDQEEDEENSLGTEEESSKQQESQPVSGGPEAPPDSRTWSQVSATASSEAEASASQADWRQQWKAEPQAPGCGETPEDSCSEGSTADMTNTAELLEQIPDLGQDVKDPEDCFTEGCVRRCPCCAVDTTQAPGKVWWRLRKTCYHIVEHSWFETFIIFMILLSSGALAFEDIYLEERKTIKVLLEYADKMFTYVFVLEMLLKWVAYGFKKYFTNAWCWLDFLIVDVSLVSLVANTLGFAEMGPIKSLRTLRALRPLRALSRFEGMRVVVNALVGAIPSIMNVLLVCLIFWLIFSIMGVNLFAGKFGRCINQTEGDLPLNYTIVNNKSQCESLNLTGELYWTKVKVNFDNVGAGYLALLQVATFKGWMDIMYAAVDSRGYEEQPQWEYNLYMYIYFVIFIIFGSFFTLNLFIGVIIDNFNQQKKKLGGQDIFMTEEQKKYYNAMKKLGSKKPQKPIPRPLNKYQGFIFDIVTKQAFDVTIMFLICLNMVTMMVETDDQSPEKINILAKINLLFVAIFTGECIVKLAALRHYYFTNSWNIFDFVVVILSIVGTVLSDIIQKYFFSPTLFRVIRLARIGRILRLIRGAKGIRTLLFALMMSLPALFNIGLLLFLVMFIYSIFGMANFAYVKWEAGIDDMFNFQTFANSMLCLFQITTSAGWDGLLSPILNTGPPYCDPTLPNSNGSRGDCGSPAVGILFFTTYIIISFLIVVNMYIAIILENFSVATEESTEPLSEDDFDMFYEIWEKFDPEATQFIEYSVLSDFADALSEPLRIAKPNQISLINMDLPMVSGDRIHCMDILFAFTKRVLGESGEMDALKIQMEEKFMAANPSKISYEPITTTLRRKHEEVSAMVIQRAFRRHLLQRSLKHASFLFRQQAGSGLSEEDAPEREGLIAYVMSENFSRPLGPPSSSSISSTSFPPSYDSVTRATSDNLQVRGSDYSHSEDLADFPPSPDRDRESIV

With “FS50, salivary protein from the flea Xenopsylla cheopis (from UniProt A2IAD2 20-96) (natural protein)”, in experiment [1], the IC50 of inhibition of NaV1.5 currents, whole-cell patch clamp on HEK 293T cells, FS50 from 0.1 nM to 100 μM worked out at 1580 nM and the reduction of the control peak amplitude of the NaV1.5 current at 10 μM FS50, whole-cell patch clamp on HEK 293T cells (at 30 μM the remaining inward current was eliminated completely) amounted to 82.5%. The substance also displayed a time constant of inhibition of NaV1.5 currents at 5 μM FS50, whole-cell patch clamp on HEK 293T cells in experiment [2] of 15 s.
